Reference: article PMC5504490 (Journal of Proteome Research, 2017)

Target: RNAP β′ subunit with 6his (rpoC-6his), in purified RNAP (B. subtilis (strain BS200), UniProt P37871 1-1199)
Assay: cross-linking

Sequence of RNAP β′ subunit with 6his (rpoC-6his), in purified RNAP (P37871 whole entry): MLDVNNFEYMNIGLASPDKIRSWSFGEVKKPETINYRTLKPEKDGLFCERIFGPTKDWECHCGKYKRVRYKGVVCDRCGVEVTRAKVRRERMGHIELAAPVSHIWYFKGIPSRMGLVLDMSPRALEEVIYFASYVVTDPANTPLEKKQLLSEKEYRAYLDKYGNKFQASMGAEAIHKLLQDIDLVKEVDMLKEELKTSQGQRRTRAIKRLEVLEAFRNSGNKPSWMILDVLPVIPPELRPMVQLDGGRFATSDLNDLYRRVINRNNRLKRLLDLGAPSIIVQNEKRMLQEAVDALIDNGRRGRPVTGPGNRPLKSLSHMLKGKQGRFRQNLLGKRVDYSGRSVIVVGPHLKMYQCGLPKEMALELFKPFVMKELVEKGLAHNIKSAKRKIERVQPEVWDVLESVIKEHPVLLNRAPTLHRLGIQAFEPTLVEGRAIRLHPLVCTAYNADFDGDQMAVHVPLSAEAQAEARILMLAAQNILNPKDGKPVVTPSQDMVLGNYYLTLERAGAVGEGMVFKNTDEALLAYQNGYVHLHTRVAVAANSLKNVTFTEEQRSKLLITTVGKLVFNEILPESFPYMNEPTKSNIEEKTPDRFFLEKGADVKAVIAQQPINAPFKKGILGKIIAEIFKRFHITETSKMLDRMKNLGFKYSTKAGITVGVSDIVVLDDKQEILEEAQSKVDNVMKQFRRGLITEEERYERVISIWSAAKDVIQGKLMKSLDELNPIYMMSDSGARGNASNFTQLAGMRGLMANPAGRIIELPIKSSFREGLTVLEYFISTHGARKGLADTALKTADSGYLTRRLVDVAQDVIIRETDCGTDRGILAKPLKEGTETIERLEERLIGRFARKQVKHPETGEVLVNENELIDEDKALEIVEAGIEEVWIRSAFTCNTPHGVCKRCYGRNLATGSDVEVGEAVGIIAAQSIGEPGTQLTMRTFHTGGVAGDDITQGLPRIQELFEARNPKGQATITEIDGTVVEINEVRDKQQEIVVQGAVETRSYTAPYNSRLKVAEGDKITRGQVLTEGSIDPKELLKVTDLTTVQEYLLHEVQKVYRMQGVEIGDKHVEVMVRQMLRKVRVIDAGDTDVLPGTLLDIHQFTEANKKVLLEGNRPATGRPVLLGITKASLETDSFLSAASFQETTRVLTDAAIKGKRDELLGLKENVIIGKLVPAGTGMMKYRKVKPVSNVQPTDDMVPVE

B1: δ subunit (RpoE) of RNAP (natural protein)
chain: MGIKQYSQEELKEMALVEIAHELFEEHKKPVPFQELLNEIASLLGVKKEELGDRIAQFYTDLNIDGRFLALSDQTWGLRSWYPYDQLDEETQPTVKAKKKKAKKAVEEDLDLDEFEEIDEDDLDLDEVEEELDLEADDFDEEDLDEDDDDLEIEEDIIDEDDEDYDDEEEEIK
B1: binds.
